The text below walks through data of the NTF2 design screens of Basanta et al. (2020).

The nature of the data set: protease stability score; higher = more stable; yeast display proteolysis, trypsin and chymotrypsin.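 Also: log10 excess protease needed over predicted unfolded state with 0 meaning unfolded.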

The sequence “DEEAERIIERYLEAVKTNDPEQMKEMADPNVKVKVGDKVIHGMEDAVKKVQHRLDEQRVEIKHVTLKVRNGRVNVEADVVVTHNGRPDRSKYHIDMEAHNGSAVYVRITDVS” gave a protease stability score of 1.38.
In turn, “DEEAETVLKRWLTALRENDPQQAADLADPHAQFQIGEKTIRGREDLKRFMDEMLHHLRVDFTIDHVKVTGETVVVHFTVEFNVNGRPLRFEVVLVVKAENGKVKQLEQHMDDDQWRQVKS” came in with a protease stability score of 0.358.
Take “DEEAFKRFKEMVDAIRTGDRDRVRRLADPNARFEVGDKEVRGMDDYARKIKRKRDEIRMRYQIDSYSKSGDKVVARVQVEVEHNGQPSSHVYRAEFKNSNGRIVELNVKTDS”: the protease stability score is 0.275.
“DEEAFKVMEKLEEDIHTGSEENIEKLFDPNARLRVGDHVVDGRHNIAKHVRDVRESARLEFSVRTYDMQGEKVRLDVTWRREHNGQPESATATVVAEIHNGRIVSVTVDERK” registered a protease stability score of 0.801.
Sequence “DEEAHELWKKWQEAFKTGDPEQLHEMADKDARLRIGNKEIHGREKAVKQLVDERKEMHIDYRIRSYKFEGNRLTFTAHANARVNGQPYRYTVKMQFSFSNGRLKELQIRIPEEVMQELRN” registered a protease stability score of 0.791.
In turn, “DEEAHEVIDTLRKAQETGDRNTARSLIDPNATFQVGDNVIRGREEYVRDLVRHRDQIRVELKHLSQTFSNGKMRMTQEAVYDINGRPDRVEFTASATIHNGRVKHMTVQVPPEQVKRLER” showed a protease stability score of -0.181.
The value for “DEEAHKLATKWLRAVQTGDPDTVKELVDPNVRAVYGDQEITGRERLADEIKKTRDHSRVELESVRVTVHGDKVRAQADVRVNTNGKPERNTVDVTIVIHNGRIKRMHMQKSQ” was 0.7; that for “DEEAHKLMEEMMRAWKHGDSQRVADLVDPNARVKIGDKEVRGHEQIKELVHTLKTEMRIEYQSISAENHGNHVEVDARLSVESNGKPEQVDFKLRLVVQNGRIREISADYKP” was -0.035; that for “DEEAHKVAESFIKAYSNGDEDKLKKNVDPNARIQIGDKYIHGMDTFVKEQRKRREQSRYHMSITHVDVQGNEVDVRFKAESEHDGQPHTNRMSVNFTFHNGNIKNVDIQYEP” was -0.307.
As for “DEEAIDLANRFLEARKTGDPDKAREQADPNATFKYGDREVHGMDEMARQIEHEHKESRVNIDVDRVTDTGDTAKFDMSVRENHNGQPHTVKMDMVVKAHNGHIKHLSYTLNG”, the protease stability score is -0.514.
Under “DEEAIHRMEEFIKNVNNNNEEKLKELADPNVDAHIGDKVIHGMERIVTELVKELENIDIEYKDMRVEDRGDNIHIQIRAIFHHNGKPQEHTQIIDVQVENGKVKKMRRSSDS” stands 0.185; under “DEEAIKQAKKLLDALRTGDEETLKEMIDPNARIHVGDKEVHGREEAAEQWQRRQEEQSMDWKVKSVENTNGRAEFRATATRRHNGQPDHFDFTWRVQAHNGRVKHMQVETRG”, -0.262.
Under “DEEAIKVQEEIQKQEEKGNEENVEKNMDENVKLRVGDKDLEGRSEVSKDVRRRKDEMRFQYLHMSYHSNGETIRVNIEMSSNHNGRPDTRRFDATFHIHNGKLTEYSKESSQ” stands 0.161; under “DEEAKDNFETAFKAEMTGDPQKYKKNVDPNAKVTIGDKTVRGREEVAKQLQHRRKESHVEFTDMKVKVQGDKVVVKLKAVDNENGRPDTAHYDIQFHASDGRITDLKVNKTK”, -0.049.
The value for “DEEAKEVLERWHTAIKHGDPNLAKEMADKDVRINVGDKSFSGMEQNAKDMHRERNELEYEILSVRFEVHGDKVKVEFHATRNNNGNPDTKKFDLTATASNGKATRVTLQSSG” was -0.538; that for “DEEAKKLADEWADAVNKNDEKSLKDLVDPNAKFRVGNQEYHGREQLEEFLSKWMSEWRHSLEDWRVNVQGDTVVLTAKLNVDVNGKPARVDAHVEFVVHNGRIKSQSEQFDEQRLRDNKS” was 0.521; that for “DEEALEILRDAWEALRTGDHEKLRELFDKNANVRIGEKRFEGSDEIMRDWLTTIRNIRFHIHDIKFTVNGDKAVVRVNVNFEHNGKPQSDVYRMSAEADNGRIKSADADRDK” was 0.391.
“DEEALHILERFLKLMETNDEETLRDLVDPNAENRVGDKTVHGREDFQREVHTMKKQWRVRFRHIDNQSRPNEAVVRANVNNDINGRPITEDVVFRADFKNGKLKSLHIQMPEEYKKELDK” yielded a protease stability score of 0.455.
In turn, “DEEALHLATQLYTNWRNNNPEEVVKLLDENARINVGDFNVTGRNNVRSTLEHLNREMHFEMRISSVDDHNGRAHLTVEARKNINGQPRNVSMKMEVQFHNGKIQQIVAHMPEEDIRTLQS” came in with a protease stability score of 0.811.
Regarding “DEEALKFAETFLEVLHKGNPDDLRRLIDENVEIKIGDHEIDGMDNAVKQLHTRIKEINMHIKVDSMKAQGDSIKIHFTREVHRDGRPDTRHATLIMRFNNGELQRFQVDDRQ”, the protease stability score stood at 0.335.
“DEEALKHAKKLLNIITNGNPSEAQKLFDPNAKAHIGDQTLTGREDYVRDLQEKKDRMRYKIKSMDAQTDGEKVRFDIKYDFNINGQPRHASVVIRLKLHNGKIVEIRVQIDPEQLKQHRQ” gave a protease stability score of 1.09.
Under “DEEALKKLQDILRRNDQDKMNKMIDKDVRVVIGEHEYRGKRNVQEALKREYEHADRFEVKHIEDHGDKLHVDVVLRVDGRDIRFVVVIDVHNGNIRNVKVDFTDEDTQRDFQRQLD” stands 1.01; under “DEEALKKMVDTLLKYVEQGNIKDIQQILKENVEFKLGDTEYKGVEHAKRDVKKLKDAGVEVHVKKTEVEGDTAHVETVWHAGDYEMHVTVQYVVRGDKVEKVEVRWSEEAKKALKVG”, 0.24; under “DEEALKLLESLMEAVKTNNEERLKSLVDPNAHFQYGDKTLHGMEDWAKEVVRRMREIHVEWEWHTWSVHNGQIVVDVHARLEINGRPVHWKERIIVELENGKVKSMVFQISEEEKKHIDG”, 1.6.
With “DEEALKNVKENLEDGDWDNLAKQADENATWVYGEKRVHGRRDLKKYAEAMKRQIDHWSIRSITTRGNKASVNAEVQVNGHRRSFHIEVEVENGHIKHWNMNFTDPTDERKVLKILE”, the protease stability score is -0.017.
The value for “DEEALKNWEHQLRAHEQGDENRLKELADPNVRYRVGNHEIRGMQQRVEDASRVKEHMRVQMSIQEVEVRGDKFDATATAEYVVNGRPQQITYKFSFHAHNGKIKNLDVRLDEDQQRKLEK” was 0.184; that for “DEEALKQAEEILTQRQTGNPQEVMKNMDKNVKFDYGDKTIHGKENLEKDVEKERTEMRYEIKSVEFRARGNKVVADFRATFNVNGHPFSVRVVFIAHFEDGKIKKATENVSEEQRKKMKS” was 0.084.
The value for “DEEALKRVEKFWEALNTGNEDELRKQLDPNARIRIGDKDIQGREDMAKWVRRVNRQMKMTVTIEDMQTRPGRAEIDAKASVNHNGRPNQHDVKLSAEFHNGQITSLTVQLKG” was 0.592.
The sequence “DEEALKVLKEWIKAVETGDEERIKELVDKDVTVQVGDKVIRGREQVAKTVRKEREEMRVEINFDRLHADGDRVSAEFKVVEETNGRPNTKKQRMSARVHNGKFKSMEIQDDG” had a protease stability score of 0.205.
Sequence “DEEALNLFHRMINAIQENDPDTLHRLVDPNARIQIGDHDIHGMKTYVREVEKTLRSMRIKFDIKSVDVTGDKVVIDEKVDFDINGKPVHNKVEMRIKAHNGTVKHLDWKVPEDELKKIEE” displayed a protease stability score of -0.232.
Under “DEEALNNLHEFFKHWNTGNPHELMKLADPNVRFQVGEKVIHGREEFMKDIKRIREELRQEIDVRDVKVQGEKLIVKATRSEERNGKPSSDTIHMTARVHNGRIKSVDIKSTS” stands 0.435.
The sequence “DEEAMKRFQELLDVLRTGDENRAKKLMDENVHLLVGDKEINGRDHAAKTMAQTYREMRIEYKTVKRDVTNGVVHVRMRYVKEHNGTPNDRVVLVEVRFHNGRLKVLNRNEKD” yielded a protease stability score of 0.352.
The sequence “DEEAMKVFEEIMRAIEQGDPDRIIENADEDVRFDVGDKRLHGREKAAKDLVDFLHHQRTHIRSYDTSVSGEKLTLDVDMVNQNNGNPNSKRYTVDAHVHNGKLKSVKETDDQ” had a protease stability score of -0.27.
Sequence “DEEANDLFRQIQTAENDNNPDEITELFDENATFRVGDRVIKGREKYAHKVVENLQKWRFTWDRIDVKARNGHARVTIRMTFNVNGKPDSYQAVMHLQFSNGRVQEIHMDIDPRKAKELLK” yielded a protease stability score of 0.124.
On to “DEEANEMAKSYLEAKTRGDPRSAKELADKDAEFVVGDKTYQGMDENSDNMRRERDEQRTKVKILHLDDRPNHAVIKYRVEVQTNGQPRTKNYELNLQYSNGKIKYVRVEDRK”, for which the protease stability score is -0.027.
Under “DEEANKIAKKFQEALRKGDENRLKELVDPNVRMEYGDHSIHGREELEKDVRKKKRDMRVKITLDHMEDNGSEVTAKVRWTQEHNGTPDSTHFSARFDFTDGRLKHYDQNDSG” stands -0.009.
The value for “DEEANKNMKDMWRTGDWKQIAENADEDAHYQVGDKKFSGREQVQTFIELLQNRVDDQNIRDMEDKGNEIDIEFTVVINGRKLVLHATVQAHNGRVKSWTVKVTDRDDKRKLDEALR” was 0.307; that for “DEEANKVAKKLWEAIDHGNKEQAKELADPNAKAHVGDKSIHGMDTFVTWIKEIFDTMSFEVRIEDMKVHNGRLSANVRATFDINGQPRHQQARFKMDIHNGKISKVVIEMPKEKWKTILR” was 0.97.
The value for “DEEANKVIDRLLKAIKHNNPDQAQHNMDEDVRIRIGDQEINGREQAKKEIRKRNEKMRINIDEVTLNEHPNKVRIQYRYKVDVNGRPVRNSAHMEARVSNGKVKEIDVRVSEDQKRHEER” was 0.018; that for “DEEAQELAERVFKALQTGDPDTLVKNMDPNVRLDVGDKKIQGREEAKKHADRLRHEQKVEYDSYEVRVHDGRVVVRLHWKFTVNGHPRTLTLTVEMKAHNGKVKHFSQRVPEDVLRKMKS” was -0.049.
For the sequence “DEEAQEVVEDMLRAIDKGDEDQIRRNVDKDAKVKVGNHELHGREQIAKFLSKERNEIEQSFQYESVTVDGDKIKFQFEMSRNVNGKPMRVSAQAEADAHNGKIRHFKVNVDTDVERRIDS”, the protease stability score was -0.165.
The value for “DEEAQEVYHRLRKVLENNNPKEFEENVDKDVRFNIGDKRIHGREQASKDWKSRMEEQHRKITRVENQSHGNEFEVRAKVNYDHNGQPRQQDLSAHVVAENGKLKMATYEVRK” was 0.018; that for “DEEAQKAAERVWKAIERGNEEELHRLIDPDVRIKVGDKDYHGREHYVESVVEIMTTIRFTIHRMEIKVSGERVIIEYHYEFSVNGQPDTMRVIVYMVAHNGKVKNIHVKMSPEKRDRFRE” was 1.05.
The sequence “DEEAQKHIQQMFHAIDHGNPEKVKELADPNVNIEVGDKRYHGMDTWVREIEKTKKEMRVSVEHVKVDDRNGRAKIDVIMNNEVNGKPVRDRKTATADVHNGKIKSLQYQFSEDQKKKDEG” yielded a protease stability score of -0.472.
“DEEAQKHLREFFKNQETGDPDKLMEMVDENVHWQVGDKTIEGRDTMKQDFDRRRKELRYHVDIKKVNAHNGRIRARATFHNEHNGKPKSFQAIVVAVITNGRIKSIHVQKRQ”: the protease stability score was -0.037.
“DEEAQKKVEEWERAIEHGNEQQARELADKDVRIEVGDQRVRGMEDIARTQVRKQREITRHVRRFDAHATGDKIRVELVFEVHHDGQPRHQKYELRMVMHNGRVHSVRVETRR” displayed a protease stability score of 0.412.
As for “DEEAQKLLDMLRKAEQTGDEDRVRQLADEDVKVRIGDKVIHGREEWARHVRRERNEMRFKIQDLKVDVQGDHLSVKYTAHRDHNGQPQSDTYHYTLQMHNGRIKHLNVTEEK”, the protease stability score was -0.004.
